We go through one substance from PMC8499050.

What all share (assay): ITC
In test [1] the target is human factor X (zymogen) (Homo sapiens) (UniProt P00742).
For test [2], the target named is human activated factor X (Homo sapiens) (UniProt P00742).
The target of test [3] is human activated factor IX (Homo sapiens) (UniProt P00740).
In test [4] the target is human factor IX (zymogen) (Homo sapiens) (UniProt P00740).
Chain of human factor IX (zymogen) (Homo sapiens) (P00740 47-461): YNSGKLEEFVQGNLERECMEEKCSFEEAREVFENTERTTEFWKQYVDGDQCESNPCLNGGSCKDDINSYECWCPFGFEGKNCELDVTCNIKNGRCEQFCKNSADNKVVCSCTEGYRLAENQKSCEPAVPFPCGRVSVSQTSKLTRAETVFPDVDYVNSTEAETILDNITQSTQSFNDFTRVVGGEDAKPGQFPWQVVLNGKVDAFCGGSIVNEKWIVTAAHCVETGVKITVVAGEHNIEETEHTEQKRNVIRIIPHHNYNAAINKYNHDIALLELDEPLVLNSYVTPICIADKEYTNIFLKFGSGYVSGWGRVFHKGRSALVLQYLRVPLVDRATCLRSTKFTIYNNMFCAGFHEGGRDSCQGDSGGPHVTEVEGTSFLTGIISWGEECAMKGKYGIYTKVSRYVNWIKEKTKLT

Chain of human activated factor IX (Homo sapiens) (P00740 47-191, chain 1 of 2): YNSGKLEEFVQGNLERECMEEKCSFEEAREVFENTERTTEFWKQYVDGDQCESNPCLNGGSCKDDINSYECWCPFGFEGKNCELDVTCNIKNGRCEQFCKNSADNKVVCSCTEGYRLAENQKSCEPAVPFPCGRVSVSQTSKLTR
Chain of human activated factor IX (Homo sapiens) (P00740 227-461, chain 2 of 2): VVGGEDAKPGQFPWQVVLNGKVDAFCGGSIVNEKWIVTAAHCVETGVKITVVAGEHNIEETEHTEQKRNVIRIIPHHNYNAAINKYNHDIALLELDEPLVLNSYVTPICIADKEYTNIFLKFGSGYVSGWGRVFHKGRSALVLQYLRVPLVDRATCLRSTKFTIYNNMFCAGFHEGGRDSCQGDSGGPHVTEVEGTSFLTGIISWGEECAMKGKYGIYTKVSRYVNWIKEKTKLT
Chain of human factor X (zymogen) (Homo sapiens) (P00742 whole entry, looked up): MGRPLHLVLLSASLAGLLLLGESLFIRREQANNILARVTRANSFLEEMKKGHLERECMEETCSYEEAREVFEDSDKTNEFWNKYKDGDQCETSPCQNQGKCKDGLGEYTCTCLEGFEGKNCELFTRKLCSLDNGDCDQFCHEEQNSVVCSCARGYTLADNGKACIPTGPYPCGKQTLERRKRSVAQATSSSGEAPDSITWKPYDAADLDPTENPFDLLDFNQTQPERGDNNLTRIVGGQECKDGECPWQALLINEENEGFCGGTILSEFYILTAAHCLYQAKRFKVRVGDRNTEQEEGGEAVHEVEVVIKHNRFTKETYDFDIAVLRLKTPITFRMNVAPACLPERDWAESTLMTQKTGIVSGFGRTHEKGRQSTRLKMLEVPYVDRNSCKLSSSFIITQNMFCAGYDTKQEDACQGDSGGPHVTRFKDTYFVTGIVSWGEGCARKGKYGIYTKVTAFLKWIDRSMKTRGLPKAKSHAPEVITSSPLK
Chain of human activated factor X (Homo sapiens) (P00742 235-488, chain 1 of 2): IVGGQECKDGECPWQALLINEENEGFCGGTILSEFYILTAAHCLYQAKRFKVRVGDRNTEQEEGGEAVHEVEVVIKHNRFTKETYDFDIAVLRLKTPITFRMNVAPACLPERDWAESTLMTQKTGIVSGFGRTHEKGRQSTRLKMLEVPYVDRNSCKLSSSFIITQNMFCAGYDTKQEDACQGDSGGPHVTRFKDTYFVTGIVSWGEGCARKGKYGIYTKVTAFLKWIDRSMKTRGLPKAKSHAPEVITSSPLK
Chain of human activated factor X (Homo sapiens) (P00742 235-488, chain 2 of 2): as the sequence (P00742 235-488, chain 1 of 2) above

As a reminder, the Kd is the free concentration of one partner at which half of the binding sites on the other are occupied at equilibrium, for simple one-to-one binding. The low end stands for a tighter complex, the high end for a looser complex. In the case of Mim8 (bispecific antibody), the Kd in test [1] was determined as 1500 nM; in test [2], 300 nM; in test [3] it was 2300 nM; in test [4], 4700 nM.
